Experiments:
[1] = target: tau extracted from Alzheimer brain samples (human (endogenous in Alzheimer brain)); assay: sarkosyl extraction and Western blot
[2] = target: the molecule itself; assay: ThT fluorescence + TEM

tau extracted from Alzheimer brain samples (natural protein), sequence (P10636 2-758): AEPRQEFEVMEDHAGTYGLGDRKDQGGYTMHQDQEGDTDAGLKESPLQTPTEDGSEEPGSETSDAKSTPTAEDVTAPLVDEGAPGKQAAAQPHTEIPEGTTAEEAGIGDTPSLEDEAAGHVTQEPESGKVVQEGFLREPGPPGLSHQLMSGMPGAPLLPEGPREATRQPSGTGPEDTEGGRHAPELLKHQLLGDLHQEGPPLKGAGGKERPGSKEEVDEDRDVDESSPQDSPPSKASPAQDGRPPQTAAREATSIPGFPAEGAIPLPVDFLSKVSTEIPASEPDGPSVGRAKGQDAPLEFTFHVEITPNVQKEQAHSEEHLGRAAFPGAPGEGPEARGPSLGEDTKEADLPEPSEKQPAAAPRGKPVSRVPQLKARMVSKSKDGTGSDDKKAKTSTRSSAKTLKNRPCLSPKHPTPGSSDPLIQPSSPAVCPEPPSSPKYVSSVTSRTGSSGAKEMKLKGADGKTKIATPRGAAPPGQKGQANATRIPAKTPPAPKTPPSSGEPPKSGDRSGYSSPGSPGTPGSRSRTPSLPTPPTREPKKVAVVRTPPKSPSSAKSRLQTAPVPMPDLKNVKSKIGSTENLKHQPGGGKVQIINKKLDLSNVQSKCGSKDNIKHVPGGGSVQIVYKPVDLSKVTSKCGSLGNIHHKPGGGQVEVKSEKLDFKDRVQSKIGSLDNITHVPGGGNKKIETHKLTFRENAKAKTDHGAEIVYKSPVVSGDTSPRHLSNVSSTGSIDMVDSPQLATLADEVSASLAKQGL

| Molecule | stoichiometry N [1] | binding result [2] |
| --- | --- | --- |
| tau extracted from Alzheimer brain samples (natural protein) | 6 | – |
| DNIKHVPGGGSVQIVYKPV [jR2R3] | – | binds |

— publication PMC11009657 (Proceedings of the National Academy of Sciences of the …, 2024)
